Article PMC7394560, “Post-replicative pairing of sister ter regions in Escherichia coli involves multiple activities of MatP” (Nature Communications, 2020)

Experiments:
MatP [1] = biological target: T1, MatP (Escherichia coli, UniProt P0A8N0 1-150); experiment: pull-down; conditions: EMSA: 10 mM Tris pH 7.5, 125 mM NaCl, 2.5 mM MgCl2, 0.5 mM DTT, 5% glycerol, 1 uM DNA, 0.25 ug poly(dI-dC), 30 C; pull-down: 20 mM Tris pH 7.5, 1 mM MgCl2 …
T1 sequence: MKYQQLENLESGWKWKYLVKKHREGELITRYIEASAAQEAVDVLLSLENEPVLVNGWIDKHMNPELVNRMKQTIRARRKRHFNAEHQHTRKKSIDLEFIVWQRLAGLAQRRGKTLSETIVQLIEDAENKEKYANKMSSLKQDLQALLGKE

[2] = biological target: the molecule itself; experiment: native gel or EMSA; 41 bp matS DNA (1 µM) with 3 µM protein; 10 mM Tris pH 7.5, 125 mM NaCl, 2.5 mM MgCl2, 0.5 mM DTT, 5% glycerol, poly(dI-dC); 30 °C for 30 min; 5% native TGE-PAGE; oligomer size on DNA inferred from the mobility of the complexes against theoretical masses
MatPΔ20 untagged = biological target: T2, MatPΔ20 untagged (Escherichia coli, UniProt P0A8N0 1-130); experiment: EMSA; equivalent efficiency to MatP; EMSA: 10 mM Tris pH 7.5, 125 mM NaCl, 2.5 mM MgCl2, 0.5 mM DTT, 5% glycerol, 1 uM DNA, 0.25 ug poly(dI-dC), 30 C; pull-down: 20 mM Tris pH 7.5, 1 mM MgCl2, 150; conditions: protein: recombinant; tags: none; chain copies: 2; label: 5' Cy3 on strand 1; blunt
T2 sequence: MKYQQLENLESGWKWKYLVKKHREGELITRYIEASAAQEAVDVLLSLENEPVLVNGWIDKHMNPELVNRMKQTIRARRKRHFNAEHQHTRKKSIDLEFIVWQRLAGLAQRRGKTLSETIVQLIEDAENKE

MatP [3] = biological target: T1, MatP; experiment: EMSA; 3 uM MatP, 2.5 mM Mg2+, poly(dI-dC); proposed tetramer; titration 0.2-2 uM in Suppl. Fig. 7a,b; EMSA: 10 mM Tris pH 7.5, 125 mM NaCl, 2.5 mM MgCl2, 0.5 mM DTT, 5% glycerol, 1 uM DNA, 0.25 ug poly(dI-dC), 30 C; pull-down: 20 mM Tris pH 7.5, 1 mM MgCl2, 150; conditions: protein: recombinant; MW 21 kDa); chain copies: 4; label: 5' Cy3 on strand 1; blunt
MatPΔ20-His = biological target: T3, MatPΔ20-His (Escherichia coli, UniProt P0A8N0 1-130); experiment: EMSA; equivalent efficiency to MatP; faster-migrating complex; EMSA: 10 mM Tris pH 7.5, 125 mM NaCl, 2.5 mM MgCl2, 0.5 mM DTT, 5% glycerol, 1 uM DNA, 0.25 ug poly(dI-dC), 30 C; pull-down: 20 mM Tris pH 7.5, 1 mM MgCl2, 150; conditions: protein: recombinant; tags: His tag (MW 32 kDa with tag); chain copies: 2; label: 5' Cy3 on strand 1; blunt
T3 sequence: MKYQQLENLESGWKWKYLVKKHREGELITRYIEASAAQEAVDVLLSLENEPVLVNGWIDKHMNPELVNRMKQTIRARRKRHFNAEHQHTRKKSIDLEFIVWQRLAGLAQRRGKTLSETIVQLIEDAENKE

**Q.** For DNAf(2matS), which binding signal (% DNAf recovered) (MatP [1]) is on record?
**A.** 63

B1: MatP (natural protein, E. coli, UniProt P0A8N0 1-150, looked up)
chain: MKYQQLENLESGWKWKYLVKKHREGELITRYIEASAAQEAVDVLLSLENEPVLVNGWIDKHMNPELVNRMKQTIRARRKRHFNAEHQHTRKKSIDLEFIVWQRLAGLAQRRGKTLSETIVQLIEDAENKEKYANKMSSLKQDLQALLGKE
notes: MatP, macrodomain Ter protein of Escherichia coli; theoretical mass printed as 21 kDa; also called MatP wt; source: E. coli BL21DE3 (pET15b containing matP), purified (heparin column)
**Q.** With B1 as the molecule, how does the “stoichiometry N” value [2] read?
**A.** 4

B2: his-tagged MatPΔ20 (domain or fragment, E. coli, UniProt P0A8N0 1-130, looked up)
chain: MKYQQLENLESGWKWKYLVKKHREGELITRYIEASAAQEAVDVLLSLENEPVLVNGWIDKHMNPELVNRMKQTIRARRKRHFNAEHQHTRKKSIDLEFIVWQRLAGLAQRRGKTLSETIVQLIEDAENKE
notes: MatP of Escherichia coli lacking the last 20 C-terminal residues; theoretical mass of the tagged protein printed as 32 kDa; The printed 32 kDa ('twice bigger' than MatP) is far more than a His tag adds to about 130 residues; also called MatPΔ20-tag; source: E. coli BL21DE3, purified (HisTrap column)
**Q.** For B2, which “stoichiometry N” value [2] is on record?
**A.** 2

B3: untagged MatPΔ20 (domain or fragment, E. coli, UniProt P0A8N0 1-130, looked up)
chain: MKYQQLENLESGWKWKYLVKKHREGELITRYIEASAAQEAVDVLLSLENEPVLVNGWIDKHMNPELVNRMKQTIRARRKRHFNAEHQHTRKKSIDLEFIVWQRLAGLAQRRGKTLSETIVQLIEDAENKE
notes: MatP of Escherichia coli lacking the last 20 C-terminal residues; theoretical mass printed as 18 kDa; source: E. coli BL21DE3 (pET15b containing matPΔ20), purified (heparin column)
**Q.** How did the “stoichiometry N” value [2] turn out when B3 was run?
**A.** 2

B4: matS41 (dsDNA)
DNA 1: AAGTACGGTAAAAGGTGACAGTGTCACTTTCATTGTTGGTA
DNA 2: TACCAACAATGAAAGTGACACTGTCACCTTTTACCGTACTT
**Q.** Does B4 bind (MatPΔ20 untagged)?
**A.** binds

**Q.** Does B4 bind (MatP [3])?
**A.** binds

**Q.** Does B4 bind (MatPΔ20-His)?
**A.** binds
